The target of assay [1] is T1, human TNFR2 (human, UniProt P20333 23-461).
T1 construct: expressed on the surface of CHO cells; also called HuTNFR2; TNFRSF1B
T1 sequence: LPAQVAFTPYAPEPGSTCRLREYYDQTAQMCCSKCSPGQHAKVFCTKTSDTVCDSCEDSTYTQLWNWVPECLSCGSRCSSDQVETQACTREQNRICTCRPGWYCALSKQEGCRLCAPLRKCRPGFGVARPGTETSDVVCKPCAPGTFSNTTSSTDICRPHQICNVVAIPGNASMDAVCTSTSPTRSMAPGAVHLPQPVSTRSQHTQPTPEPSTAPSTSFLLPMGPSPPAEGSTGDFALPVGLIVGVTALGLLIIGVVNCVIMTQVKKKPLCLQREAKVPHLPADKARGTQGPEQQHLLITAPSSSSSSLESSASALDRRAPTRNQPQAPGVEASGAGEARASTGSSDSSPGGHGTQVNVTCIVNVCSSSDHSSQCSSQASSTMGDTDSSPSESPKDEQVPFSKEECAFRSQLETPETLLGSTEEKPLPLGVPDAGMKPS
As to the kind of experiment: binding to human TNFR2 CHO cells, IgG format.

In assay [2] the target is T1, human TNFR2. Nature of the assay: binding to human TNFR2 CHO cells, IgG format; IgG format, light chain Q89L.
Assay [3] addresses T1, human TNFR2. As to the kind of experiment: binding to human TNFR2 CHO cells, IgG format; IgG format, light chain Q89L, Y91K.
In assay [4] the target is T2, biotinylated human TNFR2 (human, UniProt P20333 23-257, biotinylated).
T2 construct: Soluble biotinylated protein captured on a streptavidin chip for SPR; also called HuTNFR2
T2 sequence: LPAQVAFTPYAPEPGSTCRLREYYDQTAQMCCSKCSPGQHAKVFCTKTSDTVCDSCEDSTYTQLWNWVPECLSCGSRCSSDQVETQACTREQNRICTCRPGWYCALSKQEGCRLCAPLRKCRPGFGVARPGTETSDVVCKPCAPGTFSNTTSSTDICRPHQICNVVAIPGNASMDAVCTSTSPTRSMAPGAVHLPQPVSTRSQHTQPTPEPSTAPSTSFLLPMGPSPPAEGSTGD
Nature of the assay: SPR (BIAcore), biotinylated TNFR2 captured on streptavidin chip, TetraFab as analyte (apparent affinity). As to the method:
(§1) Increased avidity was confirmed by Surface Plasmon Resonance (SPR) using a BIAcore. Briefly, biotinylated human- or cyno-TNFR2 was captured on the surface of a streptavidin chip for 60 seconds at a flow rate of […]. […] The dissociation phase was then initiated with running buffer (HBS-EP+) injected for 600 seconds at […]. Data were analyzed using the Biacore Evaluation Software.

Another assay deals with T3, biotinylated cyno TNFR2 (cynomolgus monkey, UniProt P20333 23-257 (human entry), limits assumed, biotinylated).
T3 construct: Soluble biotinylated protein captured on a streptavidin chip for SPR; also called CyTNFR2
T3 chain: T2 sequence with S16G, S36P, P117Q, N164H, E210A, S216G, M223V
The assay is described as above. As to the method:
as §1

For assay [5], the target named is T4, human TNFR2 (human, UniProt P20333 23-461).
T4 sequence: T1 sequence
Nature of the assay: cell-based or functional assay.

Assay [6] has as its target T5, cynomolgus monkey TNFR2 (cynomolgus monkey, UniProt P20333 23-461 (human entry)).
T5 chain: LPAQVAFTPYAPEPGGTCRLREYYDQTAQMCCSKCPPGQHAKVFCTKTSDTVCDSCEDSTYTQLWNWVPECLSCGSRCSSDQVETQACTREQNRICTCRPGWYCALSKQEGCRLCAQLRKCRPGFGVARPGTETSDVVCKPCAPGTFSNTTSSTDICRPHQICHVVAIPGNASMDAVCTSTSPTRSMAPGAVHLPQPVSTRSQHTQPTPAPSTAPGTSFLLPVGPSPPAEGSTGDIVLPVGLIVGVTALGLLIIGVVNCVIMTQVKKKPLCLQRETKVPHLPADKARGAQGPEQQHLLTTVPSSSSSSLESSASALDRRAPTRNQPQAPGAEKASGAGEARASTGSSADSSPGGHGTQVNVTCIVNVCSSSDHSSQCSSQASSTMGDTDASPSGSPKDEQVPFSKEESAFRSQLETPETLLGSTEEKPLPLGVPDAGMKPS
As to the kind of experiment: cell-based or functional assay.

In assay [7] the target is T2, biotinylated human TNFR2. Nature of the assay: SPR (BIAcore), apparent affinity. As to the method: as §1
The target in assay [8] is T4, human TNFR2. As to the kind of experiment: cell-based or functional assay. The source holds these as a separate data set.
Assay [9] concerns the target T5, cynomolgus monkey TNFR2. As to the kind of experiment: cell-based or functional assay.
In assay [10] the target is T4, human TNFR2. Nature of the assay: cell-based or functional assay. This is another data set of the same source.
For assay [11], the target named is T4, human TNFR2. Nature of the assay: cell-based or functional assay. The source holds these as a separate data set.
Assay [12] has as its target T5, cynomolgus monkey TNFR2. As to the kind of experiment: cell-based or functional assay.
The target of assay [13] is T4, human TNFR2. As to the kind of experiment: cell-based or functional assay. This is another data set of the same source.
In assay [14] the target is T5, cynomolgus monkey TNFR2. As to the kind of experiment: cell-based or functional assay.

The source of these data is patent US20230406951A1 (Pfizer, published 2023).

Where a chain is given by its changes, count along the chain named. Where “and” joins values, the source holds several entries; their conditions need not be identical. Equal entries are not always repeated.

B1: GBT-TNFR2-1765 (antibody, human IgG2, kappa, V domains shown)
VH: QVQLVQSGAEVKKPGASVKVSCKVSGFSFPSSGVDWVRQAPGQGLEWLGVTWGVGSTHYNQKFQGRVTITKDTSKSTVYMELSSLRSEDTAVYYCASGEWDEGFVYWGQGTLVTVSS
VL: DIQLTQSPSFLSASVGDRVTITCKASQNVGTAVAWYQQKPGKAPKLLIYAASTLQSGVPSRFSGSGSGTEFTLTISSLQPEDFATYYCQQYSSYPLTFGGGTKVEIKR
B1 had an EC50 with human TNFR2 [1] of 0.67 nM.

B2: IgG2205 (antibody, V domains shown)
VH: B1 VH
VL: B1 VL with Q89L
notes: IgG
In turn, B2 showed an EC50 with human TNFR2 [2] of 0.43 nM.

B3: IgG 2204 (antibody, V domains shown)
VH: B1 VH
VL: B1 VL with Q89L, Y91K
notes: IgG
In turn, B3 had an EC50 with human TNFR2 [3] of 1.63 nM.

B4: TetraFab 2053 (antibody, human IgG1, kappa)
heavy: QVQLVQSGAEVKKPGASVKVSCKVSGFSFPSSGVDWVRQAPGQGLEWLGVTWGVGSTHYNQKFQGRVTITKDTSKSTVYMELSSLRSEDTAVYYCASGEWDEGFVYWGQGTLVTVSSASTKGPSVFPLAPSSKSTSGGTAALGCLVKDYFPEPVTVSWNSGALTSGVHTFPAVLQSSGLYSLSSVVTVPSSSLGTQTYICNVNHKPSNTKVDKKVEPKSCGGGGSQVQLVQSGAEVKKPGASVKVSCKVSGFSFPSSGVDWVRQAPGQGLEWLGVTWGVGSTHYNQKFQGRVTITKDTSKSTVYMELSSLRSEDTAVYYCASGEWDEGFVYWGQGTLVTVSSASTKGPSVFPLAPSSKSTSGGTAALGCLVKDYFPEPVTVSWNSGALTSGVHTFPAVLQSSGLYSLSSVVTVPSSSLGTQTYICNVNHKPSNTKVDKKVEPKSCDKTHTCPPCPAPEAAGAPSVFLFPPKPKDTLMISRTPEVTCVVVDVSHEDPEVKFNWYVDGVEVHNAKTKPREEQYNSTYRVVSVLTVLHQDWLNGKEYKCKVSNKALPAPIEKTISKAKGQPREPQVYTLPPSREEMTKNQVSLTCLVKGFYPSDIAVEWESNGQPENNYKTTPPVLDSDGSFFLYSKLTVDKSRWQQGNVFSCSVMHEALHNHYTQKSLSLSPGK
light: DIQLTQSPSFLSASVGDRVTITCKASQNVGTAVAWYQQKPGKAPKLLIYAASTLQSGVPSRFSGSGSGTEFTLTISSLQPEDFATYYCQQYSSYPLTFGGGTKVEIKRTVAAPSVFIFPPSDEQLKSGVTASVVCLLNNFYPREAKVQWKVDNALQSGNSQESVTEQDSKDSTYSLSSTLTLSKADYEKHKVYACEVTHQGLSSPVTKSFNRGEC
notes: also called TF2053
As to B4, in the assay with biotinylated human TNFR2 [4], the Kd came out at 0.06 nM, the koff was found to be 0.000473 s⁻¹ and the kon was determined as 8.1e+06 M⁻¹ s⁻¹. Moreover, in the assay with biotinylated cyno TNFR2, the Kd amounted to 0.61 nM, the koff is 0.00706 s⁻¹ and the kon was 1.15e+07 M⁻¹ s⁻¹. Further, in the assay with human TNFR2 [5], the “EC50 HuPBMC (ICAM-1 up-regulation)” value was 0.116 µg/mL. Further, the “EC50 CyPBMC (CD25+/Ki67+ of CD4+ cells)” value with cynomolgus monkey TNFR2 [6] is 5.95 µg/mL. Moreover, in the assay with biotinylated human TNFR2 [7], the “fold improvement of KD compared to its IgG counterparts 854 or 1765” value is 5 fold. For the same molecule, in the assay with human TNFR2 [8], the “Human EC50, IKBa degradation in expanded Tregs, donor Human D23” value came out at 0.0478 nM; the “Human EC50, IKBa degradation in expanded Tregs, donor Human D24” value came out at 0.00575 nM; the “Human EC50, IKBa degradation in expanded Tregs, donor Human D28” value was 0.02 nM and 0.0179 nM; the “Human EC50, IKBa degradation in expanded Tregs, donor Human D32” value amounted to 0.0373 nM. In addition, in the assay with cynomolgus monkey TNFR2 [9], the “Cyno EC50, IKBa degradation in expanded Tregs, donor Cyno3” value came to 2.25 nM; the “Cyno EC50, IKBa degradation in expanded Tregs, donor Cyno 16-477” value worked out at 0.118 nM; the “Cyno EC50, IKBa degradation in expanded Tregs, donor Cyno 16-873” value turned out to be 0.0538 nM; the “Cyno EC50, IKBa degradation in expanded Tregs, donor Cyno 18-7469” value was determined as 0.4 nM. Besides, the “Cyno EC50, IKBa degradation in expanded Tregs, donor Cyno 18-7473” value in the assay with cynomolgus monkey TNFR2 [9] worked out at 0.155 nM. Also, the “EC50 Jurkat” value with human TNFR2 [10] was determined as 0.037 µg/mL. Besides, in the assay with human TNFR2 [11], the “Human EC50, OX-40 up-regulation on splenic Treg, donor BioIVT #BRH1515663” value came out at 0.018 nM and the “Human EC50, OX-40 up-regulation on splenic Treg, donor ZenBio #072518” value was 0.047 nM. In the assay with cynomolgus monkey TNFR2 [12], the “Cyno EC50, OX-40 up-regulation on splenic Treg, donor 17-5215” value worked out at 1.75 nM; the “Cyno EC50, OX-40 up-regulation on splenic Treg, donor #31” value turned out to be 0.799 nM; the “Cyno EC50, OX-40 up-regulation on splenic Treg, donor #34” value is 0.905 nM; the “Cyno EC50, OX-40 up-regulation on splenic Treg, donor TA1” value was 0.642 nM. In the assay with cynomolgus monkey TNFR2 [12], the “Cyno EC50, OX-40 up-regulation on splenic Treg, donor TA2” value turned out to be 0.692 nM. For the same molecule, in the assay with human TNFR2 [13], the “fold improvement of EC50 for up-regulation of ICAM-1 against 854 and 1765” value turned out to be 10 fold; the “fold improvement of Jurkat EC50 compared to both 854 and 1765” value is over 10 fold; the “mean EC50 for IKBa in human expanded Tregs” value is 0.026 nM; the “mean EC50 for OX-40 upregulation on human splenic Treg” value was 0.033 nM. Besides, in the assay with cynomolgus monkey TNFR2 [14], the “loss of potency in cyno versus human, IKBa degradation” value is over 5 fold; the “mean EC50 for IKBa in cyno expanded Tregs” value turned out to be 0.145 nM; the “mean EC50 for upregulation of OX-40 in cyno splenic Treg” value worked out at 0.958 nM.
